Target: human CCR8 (human) (UniProt P51685)
Assay: cell-based or functional assay

IC50 of CCL1 blocking (Ca2+ influx, CHO/hCCR8.Gna15 cells): 0.0176 µM
induction fold at plateau (about 40 nM antibody), mFcgRIV Jurkat reporter with CHO/hCCR8: 13 fold
induction fold, mFcgRIV Jurkat NFAT-luciferase reporter with CHO/hCCR8, at about 1 nM antibody: > 12 fold
B1: murine anti-human CCR8 mAb 433H (BD Biosciences) (antibody, from another filing, mouse IgG2a, V domains shown)
VH: EVQLVETGGGLVQPKGSLRLSCAASGFPFNTFAMNWVRQAPGKGLEWLARIRSKSNNYATYYADSVKDRFTISRDDSRRMLYLLMNNVKFEDTAIYYCVRGKENNYGYAMDYWGQGTSVTVSS
VL: DIVMTQAAPSVPVTPGESVSISCRSSQSLLHSNGNTYLYWFLQRPGQSPQLLIYRMSNLASGVPDRFSGSGSGTAFTLRISRVEAEDVGVYYCMQHLEYPFTFGIGTKLELKR
